Measurements from patent publication US20200010534A1 (SAGABIO, published 2020).

Tests used:
[1] = target: T1, HpHSP60 fragment Δ[5], positions 101-168 of HpHSP60 (Helicobacter pylori, UniProt B2UW12 101-168); assay: recognition of HpHSP60 fragments by the antibody (spot/blot, FIG. 16)
T1 sequence: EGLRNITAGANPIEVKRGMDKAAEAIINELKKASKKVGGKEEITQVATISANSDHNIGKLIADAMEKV

[2] = target: T2, HpHSP60 fragment Δ[1], positions 134-200 of HpHSP60 (Helicobacter pylori, UniProt B2UW12 134-200); assay: as above
T2 sequence: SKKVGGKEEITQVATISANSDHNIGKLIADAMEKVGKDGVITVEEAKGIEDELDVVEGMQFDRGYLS

[3] = target: T3, HpHSP60 fragment including positions 101-200 (Helicobacter pylori, UniProt B2UW12 101-200); assay: recognition of HpHSP60 fragments by the antibody (spot/blot, FIG. 15)
T3 construct: also called HSP 60 101-200
T3 sequence: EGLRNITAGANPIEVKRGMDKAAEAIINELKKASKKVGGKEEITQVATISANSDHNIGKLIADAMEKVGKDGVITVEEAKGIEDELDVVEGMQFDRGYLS

B1: LHP-1 (9E4) antibody (antibody, V domains shown)
VH: EVHLVESGGDLVKPGGSLKLSCAASGFTFSSFGMSWVRQTPDKRLEWVATISNGGSYTYYPDSVKGRFTISRDNAKNTLYLQMSSLKSEDTAMYYCTRQGLRRRGAMDYWGQGTSVTVSS
VL: DIVLTQSPASLAVSLGQRATISCKASQSVDYDGDVFLNWYQQKPGQPPKLLIYAASNLESGIPARFSGSGSGTDFTLNIHPVEEDDAATYYCQQSNEVPWTFGGGTKLEIK
notes: Mouse monoclonal antibody from hybridoma 9E4 (ATCC PTA-122900); The variable regions are tied to the deposited hybridoma only in the claims; also called LHP-1 (9E4) mAb; monoclonal antibody produced by hybridoma ATCC PTA-122900
Question: Does B1 bind [1]?
Answer: no binding

Question: Does B1 bind [2]?
Answer: binds

Question: Does B1 bind [3]?
Answer: binds
